This passage reports pKa results from article PMC4485566.

For one series, the target named is His79 (UniProt position 85, YIPGTHMAFGG). The series is described as follows: UV-vis. To be noted: ferric protein implied, His79-mediated alkaline transition.
The target in the next series is His73 (UniProt position 79, LTNPKHYIPGT). The experiment in a line: UV-vis. To be noted: ferric protein implied (alkaline transition); cited from earlier work.

On to “iso-1-cytochrome c, WT*/K79H variant (Saccharomyces cerevisiae; K72A;K79H;C102S)”, for which, in the series with His79 (cited from earlier work), the pKa – broadly, the pH at which an ionisable group is half protonated – is given as 6.35 ± 0.04.
Regarding “iso-1-cytochrome c, yWT/K73H variant (Saccharomyces cerevisiae; K73H)”, in the series with His73, the pKa is 6.60 ± 0.06.
With “iso-1-cytochrome c, yWT/K79H variant (Saccharomyces cerevisiae; K79H)”, the pKa with His79 is 6.62 ± 0.08.
